Reference: patent US20180250392A1 (published 2018)
Numbering of substitutions follows the chain as printed.

B1: Mab 149 (B1C4_E5) (antibody, V domains shown)
VH: EVQLLESGGGLVQPGGSLRLSCAASGFTFSWYVMGWVRQAPGKGLEWVSSIYPSGGATNYADSVKGRFTISRDNSKNTLYLQMNSLRAEDTAVYYCARGNYLDYWGQGTLVTVSS
VL: DIQMTQSPGTLSLSPGEGATLSCRASQSVSSNYFGWYQQKPGQAPRLLIYGASSRATGIPDRFSGSGSGTDFTLTISRLEPEDSAVYYCQQFDSSPLSFGGGTKVEIKR
B2: Mab 147 (B1C4_A7) (antibody, V domains shown)
VH: B1 VH with S54Q, N59S, L102F
VL: B1 VL with S95L, S98T

Experiments:
rat VEGFR2 = rat VEGFR2 (rat, UniProt O08775 20-760, limits assumed); experiment: Biacore, rat VEGFR2
rat VEGFR2, sequence (O08775 20-760 limits assumed): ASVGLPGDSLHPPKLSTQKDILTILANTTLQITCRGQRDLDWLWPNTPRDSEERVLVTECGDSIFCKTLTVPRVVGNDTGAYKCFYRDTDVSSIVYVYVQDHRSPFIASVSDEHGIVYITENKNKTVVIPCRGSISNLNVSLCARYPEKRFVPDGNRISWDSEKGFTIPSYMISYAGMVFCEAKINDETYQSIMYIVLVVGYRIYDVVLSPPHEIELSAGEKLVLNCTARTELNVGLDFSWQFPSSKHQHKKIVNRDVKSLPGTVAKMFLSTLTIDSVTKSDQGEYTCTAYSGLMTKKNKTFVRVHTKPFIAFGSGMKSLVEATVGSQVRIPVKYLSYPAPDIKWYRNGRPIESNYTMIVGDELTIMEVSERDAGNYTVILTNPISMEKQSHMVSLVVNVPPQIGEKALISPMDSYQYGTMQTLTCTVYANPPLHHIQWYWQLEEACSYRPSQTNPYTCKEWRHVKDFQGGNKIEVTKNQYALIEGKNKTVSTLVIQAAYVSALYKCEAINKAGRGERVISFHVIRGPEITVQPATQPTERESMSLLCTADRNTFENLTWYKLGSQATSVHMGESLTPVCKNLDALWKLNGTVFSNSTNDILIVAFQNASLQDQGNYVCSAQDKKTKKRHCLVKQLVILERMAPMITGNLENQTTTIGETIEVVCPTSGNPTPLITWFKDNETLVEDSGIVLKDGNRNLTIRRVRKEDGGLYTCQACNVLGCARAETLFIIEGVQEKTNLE

[1] = biological target: T1, human VEGFR2 (soluble hVEGFR2) (human, UniProt P35968 20-764); experiment: Biacore, human VEGFR2
T1 construct: also called KDR
T1 sequence (P35968 20-764 limits assumed): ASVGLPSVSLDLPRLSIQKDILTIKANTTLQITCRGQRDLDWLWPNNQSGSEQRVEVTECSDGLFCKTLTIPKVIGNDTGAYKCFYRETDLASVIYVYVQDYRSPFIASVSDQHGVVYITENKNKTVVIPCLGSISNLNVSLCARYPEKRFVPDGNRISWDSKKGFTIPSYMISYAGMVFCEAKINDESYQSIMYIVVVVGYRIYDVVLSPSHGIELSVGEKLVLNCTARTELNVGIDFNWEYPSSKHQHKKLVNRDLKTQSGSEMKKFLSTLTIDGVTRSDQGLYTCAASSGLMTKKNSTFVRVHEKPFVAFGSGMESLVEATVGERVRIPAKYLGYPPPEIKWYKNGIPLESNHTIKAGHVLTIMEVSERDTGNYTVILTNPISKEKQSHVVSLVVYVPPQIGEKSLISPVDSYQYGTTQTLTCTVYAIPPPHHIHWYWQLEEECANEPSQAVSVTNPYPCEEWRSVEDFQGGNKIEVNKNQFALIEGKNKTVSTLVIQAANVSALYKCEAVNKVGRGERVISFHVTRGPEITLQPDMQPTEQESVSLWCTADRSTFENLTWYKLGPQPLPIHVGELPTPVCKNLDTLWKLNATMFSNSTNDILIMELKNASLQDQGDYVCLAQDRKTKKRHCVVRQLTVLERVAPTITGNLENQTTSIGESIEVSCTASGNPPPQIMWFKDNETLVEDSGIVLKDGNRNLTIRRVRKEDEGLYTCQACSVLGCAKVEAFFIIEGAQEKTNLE

[2] = biological target: T2, murine VEGFR2 (soluble mVEGFR2) (murine, UniProt P35918 20-762); experiment: Biacore, murine VEGFR2
T2 construct: also called mouse VEGFR2
T2 sequence (P35918 20-762 limits assumed): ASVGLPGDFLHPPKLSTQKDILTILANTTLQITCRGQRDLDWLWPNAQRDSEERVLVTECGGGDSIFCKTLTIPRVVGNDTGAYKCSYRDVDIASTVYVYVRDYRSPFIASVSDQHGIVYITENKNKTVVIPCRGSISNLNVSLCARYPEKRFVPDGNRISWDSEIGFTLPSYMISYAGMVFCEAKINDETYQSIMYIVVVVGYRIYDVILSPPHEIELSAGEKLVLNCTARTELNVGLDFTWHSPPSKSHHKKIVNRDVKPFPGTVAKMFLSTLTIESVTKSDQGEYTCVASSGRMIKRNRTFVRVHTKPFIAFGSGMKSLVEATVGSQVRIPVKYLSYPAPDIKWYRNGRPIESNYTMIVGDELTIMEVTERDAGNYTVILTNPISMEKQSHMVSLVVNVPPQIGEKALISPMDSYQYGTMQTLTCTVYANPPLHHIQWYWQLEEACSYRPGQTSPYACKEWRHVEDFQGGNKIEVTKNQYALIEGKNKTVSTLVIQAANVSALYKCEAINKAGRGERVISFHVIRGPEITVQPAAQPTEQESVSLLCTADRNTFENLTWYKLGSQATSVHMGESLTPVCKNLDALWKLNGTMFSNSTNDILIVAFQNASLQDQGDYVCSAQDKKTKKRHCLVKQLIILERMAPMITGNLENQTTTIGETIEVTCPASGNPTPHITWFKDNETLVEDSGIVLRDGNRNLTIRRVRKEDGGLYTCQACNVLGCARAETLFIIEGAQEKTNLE

koff (rat VEGFR2) [s⁻¹] | kon (rat VEGFR2) [M⁻¹ s⁻¹] | koff [1] [s⁻¹] | kon [1] [M⁻¹ s⁻¹] | koff [2] [s⁻¹] | kon [2] [M⁻¹ s⁻¹] | Binder
0.00143 | 33200 | 0.000659 | 86200 | 0.00181 | 22900 | B1
0.000899 | 64500 | 0.000282 | 113000 | 0.00128 | 43800 | B2
